This assay concerns the target Biotinylated Clostridium difficile toxin A (Clostridium difficile strain VPI 10463, UniProt P16154 1-2710). As to the kind of experiment: pull-down.

Chain of Biotinylated Clostridium difficile toxin A (P16154 whole entry): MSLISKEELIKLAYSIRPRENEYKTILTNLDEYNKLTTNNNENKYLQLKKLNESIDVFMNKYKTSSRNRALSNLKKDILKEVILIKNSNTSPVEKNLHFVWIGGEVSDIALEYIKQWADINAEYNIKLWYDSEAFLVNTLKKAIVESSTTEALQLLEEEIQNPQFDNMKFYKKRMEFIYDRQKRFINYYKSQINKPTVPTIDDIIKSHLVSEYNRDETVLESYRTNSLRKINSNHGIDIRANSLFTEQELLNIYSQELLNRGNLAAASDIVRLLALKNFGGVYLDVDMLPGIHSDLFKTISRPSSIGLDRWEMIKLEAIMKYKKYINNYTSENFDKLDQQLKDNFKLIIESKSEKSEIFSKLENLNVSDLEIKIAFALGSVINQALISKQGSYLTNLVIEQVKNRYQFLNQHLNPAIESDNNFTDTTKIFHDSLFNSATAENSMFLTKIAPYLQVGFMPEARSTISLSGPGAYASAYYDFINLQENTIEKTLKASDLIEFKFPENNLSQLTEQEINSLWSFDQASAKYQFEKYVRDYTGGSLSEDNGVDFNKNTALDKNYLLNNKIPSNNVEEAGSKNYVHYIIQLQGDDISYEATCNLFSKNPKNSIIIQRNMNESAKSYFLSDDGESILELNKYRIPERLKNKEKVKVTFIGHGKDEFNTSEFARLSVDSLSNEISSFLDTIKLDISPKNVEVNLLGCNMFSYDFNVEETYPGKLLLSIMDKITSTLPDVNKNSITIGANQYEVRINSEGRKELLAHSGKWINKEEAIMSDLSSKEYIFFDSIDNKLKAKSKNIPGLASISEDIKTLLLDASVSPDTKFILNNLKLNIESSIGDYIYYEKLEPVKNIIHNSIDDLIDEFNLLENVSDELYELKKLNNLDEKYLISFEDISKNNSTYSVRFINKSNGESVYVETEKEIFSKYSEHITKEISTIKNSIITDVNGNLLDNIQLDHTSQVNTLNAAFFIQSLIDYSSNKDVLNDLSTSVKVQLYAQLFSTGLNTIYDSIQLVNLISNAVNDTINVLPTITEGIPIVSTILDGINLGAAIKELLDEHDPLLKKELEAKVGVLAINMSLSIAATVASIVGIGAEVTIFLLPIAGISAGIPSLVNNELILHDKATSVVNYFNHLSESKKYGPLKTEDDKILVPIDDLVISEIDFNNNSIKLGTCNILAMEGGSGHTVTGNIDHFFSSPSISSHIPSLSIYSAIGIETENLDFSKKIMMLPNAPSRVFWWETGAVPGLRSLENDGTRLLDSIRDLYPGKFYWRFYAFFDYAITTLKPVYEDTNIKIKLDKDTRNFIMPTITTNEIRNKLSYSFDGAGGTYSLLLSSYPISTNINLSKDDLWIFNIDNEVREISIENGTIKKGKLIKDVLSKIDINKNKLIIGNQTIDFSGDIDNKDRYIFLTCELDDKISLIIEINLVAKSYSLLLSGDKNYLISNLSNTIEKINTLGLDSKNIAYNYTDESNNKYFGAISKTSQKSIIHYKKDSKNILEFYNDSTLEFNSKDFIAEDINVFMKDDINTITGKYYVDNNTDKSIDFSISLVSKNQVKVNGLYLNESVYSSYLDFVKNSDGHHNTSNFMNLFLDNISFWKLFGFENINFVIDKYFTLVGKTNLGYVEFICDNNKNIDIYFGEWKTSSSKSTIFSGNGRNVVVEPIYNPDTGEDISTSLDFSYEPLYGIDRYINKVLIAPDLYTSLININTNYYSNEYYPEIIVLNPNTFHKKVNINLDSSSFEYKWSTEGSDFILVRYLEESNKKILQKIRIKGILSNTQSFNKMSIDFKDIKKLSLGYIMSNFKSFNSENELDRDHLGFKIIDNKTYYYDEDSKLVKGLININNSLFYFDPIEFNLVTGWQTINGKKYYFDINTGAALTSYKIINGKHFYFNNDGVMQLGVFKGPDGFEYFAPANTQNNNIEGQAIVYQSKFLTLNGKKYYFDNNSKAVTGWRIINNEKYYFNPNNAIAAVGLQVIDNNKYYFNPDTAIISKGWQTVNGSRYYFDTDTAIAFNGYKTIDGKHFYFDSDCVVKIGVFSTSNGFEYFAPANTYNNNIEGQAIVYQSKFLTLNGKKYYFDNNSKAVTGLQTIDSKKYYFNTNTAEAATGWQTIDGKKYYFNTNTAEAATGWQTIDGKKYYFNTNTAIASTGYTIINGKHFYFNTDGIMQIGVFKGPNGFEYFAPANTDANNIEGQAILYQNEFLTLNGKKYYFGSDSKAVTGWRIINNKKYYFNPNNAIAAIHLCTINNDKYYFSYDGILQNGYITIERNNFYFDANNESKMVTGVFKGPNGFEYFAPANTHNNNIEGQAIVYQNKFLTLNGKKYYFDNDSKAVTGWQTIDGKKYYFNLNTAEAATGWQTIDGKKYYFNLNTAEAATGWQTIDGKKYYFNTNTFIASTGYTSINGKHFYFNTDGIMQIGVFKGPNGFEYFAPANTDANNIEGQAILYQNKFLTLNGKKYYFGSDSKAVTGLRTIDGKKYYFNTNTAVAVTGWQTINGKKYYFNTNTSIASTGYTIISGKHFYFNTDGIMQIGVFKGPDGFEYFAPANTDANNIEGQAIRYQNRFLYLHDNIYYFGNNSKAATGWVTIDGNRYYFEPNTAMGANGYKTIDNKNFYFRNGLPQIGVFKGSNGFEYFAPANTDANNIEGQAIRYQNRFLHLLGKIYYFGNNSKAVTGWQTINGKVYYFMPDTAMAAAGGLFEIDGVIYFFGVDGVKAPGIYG

B1: GST-Src catalytic domain (domain or fragment, UniProt P12931-1 226-536, looked up)
chain: LQQLVAYYSKHADGLCHRLTTVCPTSKPQTQGLAKDAWEIPRESLRLEVKLGQGCFGEVWMGTWNGTTRVAIKTLKPGTMSPEAFLQEAQVMKKLRHEKLVQLYAVVSEEPIYIVTEYMSKGSLLDFLKGETGKYLRLPQLVDMAAQIASGMAYVERMNYVHRDLRAANILVGENLVCKVADFGLARLIEDNEYTARQGAKFPIKWTAPEAALYGRFTIKSDVWSFGILLTELTTKGRVPYPGMVNREVLDQVERGYRMPCPPECPESLHDLMCQCWRKEPEERPTFEYLQAFLEDYFTSTEPQYQPGENL
With B1, the binding result is reported as “binds”.
